The assay concerns the target human CCR8 (human) (UniProt P51685). The experiment in a line: cell-based or functional assay.

Sequence of human CCR8 (human) (P51685 whole entry): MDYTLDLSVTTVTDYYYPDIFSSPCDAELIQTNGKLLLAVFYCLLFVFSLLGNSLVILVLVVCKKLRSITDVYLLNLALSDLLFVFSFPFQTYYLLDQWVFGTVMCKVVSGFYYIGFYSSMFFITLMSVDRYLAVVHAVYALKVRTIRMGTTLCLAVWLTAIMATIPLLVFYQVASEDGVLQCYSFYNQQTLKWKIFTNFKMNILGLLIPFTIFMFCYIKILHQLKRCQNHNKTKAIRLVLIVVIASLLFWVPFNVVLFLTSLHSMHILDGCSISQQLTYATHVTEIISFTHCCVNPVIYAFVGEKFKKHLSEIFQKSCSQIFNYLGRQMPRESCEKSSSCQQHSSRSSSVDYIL

B1: m10A11 (chimera) (antibody, from another filing, V domains shown)
VH: EVQLVESGGRLVQPKGSLKLSCAASGFAFNTYALYWIRQAPGKGLEWVARIRSKSNNYATYYADSVKDRFTISRDDSQSMLYLQMNNLKTEDTAMYYCVRARFYYSDYGYAMDYWGQGTSVTVSS
VL: DIVMTQAAPSVPVTPGESVSISCRSSKSLLHSNGNTYLYWFLQRPGQSPQLLIYRMSNLASGVPDRFSGSGSGTAFTLRISRVEAEDVGVYYCMQHLEYPLTFGAGTKLELKR
B1 yielded an ADCC EC50 (nM), NK92-CD16A effectors, HEK293-hCCR8 targets, LDH release of 0.12 nM; an ADCC EC50 (nM), PBMC FcγRIIIA158F/F effectors, HEK293-hCCR8 targets of 0.19 nM; an ADCC EC50 (nM), PBMC FcγRIIIA158V/V effectors, HEK293-hCCR8 targets of 0.05 nM; an ADCC half-maximal effective concentration (EC50), NK92-CD16A effectors, HEK293-hCCR8 targets of 0.03 nM. Besides, the ADCC maximal lysis rate, NK92-CD16A effectors, HEK293-hCCR8 targets turned out to be 30%; the ADCC maximal lysis rate, PBMC FcγRIIIA158F/F effectors, HEK293-hCCR8 targets amounted to 66%; the ADCC maximal lysis rate, PBMC FcγRIIIA158V/V effectors, HEK293-hCCR8 targets amounted to 68%.

B2: h10A11 (antibody, from another filing, V domains shown)
VH: EVQLVESGGALVKPGGSLRLSCAASGFTFSTYALYWVRQAPGKGLEWVGRIRSKSNNYATYYADSVKDRFTISRDDSKNTLYLQMNSLKTEDTAVYYCTRARFYYSDYGYAMDYWGQGTLVTVSS
VL: DIVMTQSPDSLAVSLGERATINCRSSKSLLHSNGNTYLYWYQQKPGQPPKLLIYRMSNLASGVPDRFSGSGSGTDFTLTISSLQAEDVAVYYCMQHLEYPLTFGQGTKLEIKR
Regarding B2, the ADCC EC50 (nM), PBMC FcγRIIIA158F/F effectors, HEK293-hCCR8 targets came to 0.21 nM; the ADCC EC50 (nM), PBMC FcγRIIIA158V/V effectors, HEK293-hCCR8 targets is 0.03 nM; the ADCC maximal lysis rate, PBMC FcγRIIIA158F/F effectors, HEK293-hCCR8 targets was 61%; the ADCC maximal lysis rate, PBMC FcγRIIIA158V/V effectors, HEK293-hCCR8 targets was determined as 63%.

The record behind these values is patent publication US20250215097A1.
